Data from PMC3285688, “Active Site Mutations Change the Cleavage Specificity of Neprilysin” (PLoS ONE, 2012).
Substitutions are numbered along the chain they refer to. Names may count otherwise.

B1: NEP^F563V: neprilysin active site mutant, Phe563 to valine (protein, UniProt P08473 2-750, looked up, variant F563V)
Neprilysin: GKSESQMDITDINTPKPKKKQRWTPLEISLSVLVLLLTIIAVTMIALYATYDDGICKSSDCIKSAARLIQNMDATTEPCTDFFKYACGGWLKRNVIPETSSRYGNFDILRDELEVVLKDVLQEPKTEDIVAVQKAKALYRSCINESAIDSRGGEPLLKLLPDIYGWPVATENWEQKYGASWTAEKAIAQLNSKYGKKVLINLFVGTDDKNSVNHVIHIDQPRLGLPSRDYYECTGIYKEACTAYVDFMISVARLIRQEERLPIDENQLALEMNKVMELEKEIANATAKPEDRNDPMLLYNKMTLAQIQNNFSLEINGKPFSWLNFTNEIMSTVNISITNEEDVVVYAPEYLTKLKPILTKYSARDLQNLMSWRFIMDLVSSLSRTYKESRNAFRKALYGTTSETATWRRCANYVNGNMENAVGRLYVEAAFAGESKHVVEDLIAQIREVFIQTLDDLTWMDAETKKRAEEKALAIKERIGYPDDIVSNDNKLNNEYLELNYKEDEYFENIIQNLKFSQSKQLKKLREKVDKDEWISGAAVVNAFYSSGRNQIVFPAGILQPPVFSAQQSNSLNYGGIGMVIGHEITHGFDDNGRNFNKDGDLVDWWTQQSASNFKEQSQCMVYQYGNFSWDLAGGQHLNGINTLGENIADNGGLGQAYRAYQNYIKKNGEEKLLPGLDLNHKQLFFLNFAQVWCGTYRPEYAVNSIKTDVHSPGNFRIIGTLQNSAEFSEAFHCRKNSYMNPEKKCRVW
B2: NEP^F563I: neprilysin active site mutant, Phe563 to isoleucine (protein, UniProt P08473 2-750, looked up, variant F563I)
Neprilysin: B1 Neprilysin with V563I
B3: NEP^F563M: neprilysin active site mutant, Phe563 to methionine (protein, UniProt P08473 2-750, looked up, variant F563M)
Neprilysin: B1 Neprilysin with V563M
B4: NEP^S546A: neprilysin active site mutant, Ser546 to alanine (protein, UniProt P08473 2-750, looked up, variant S546A)
Neprilysin: B1 Neprilysin with S546A, V563F
B5: NEP^S546T: neprilysin active site mutant, Ser546 to threonine (protein, UniProt P08473 2-750, looked up, variant S546T)
Neprilysin: B1 Neprilysin with S546T, V563F
B6: NEP^F563K: neprilysin active site mutant, Phe563 to lysine (low expressing) (protein, UniProt P08473 2-750, looked up, variant F563K)
Neprilysin: B1 Neprilysin with V563K

Assays:
Format in all cases: biochemical
[1] = Hydrolysis of synthetic substrate Glut-Ala-Ala-Phe-MNA by NEP and mutants (fluorogenic); details: for Specific Activity (Glut-Ala-Ala-Phe-MNA cleavage): 100 µM Glut-Ala-Ala-Phe-MNA, fluorescence ex 340 nm, em 425 nm; for Specific Activity (Glut-Ala-Ala-Phe-MNA cleavage) / Km: 37°C, 20 mM MES buffer, pH 6.5; for Km: Glut-Ala-Ala-Phe-MNA 20 to 500 µM, Michaelis-Menten fit; for Activity relative to wild-type enzyme (Glut-Ala-Ala-Phe-MNA): pH 6.5, 37°C
Protocol: Reactions of 400 µl contained 100 µM Glut-Ala-Ala-Phe-MNA, 1 µg of aminopeptidase and 15 to 100 ng of NEP or mutant NEP depending on their activity in 20 mM MES buffer, pH 6.5. Activity was monitored with a Spectra Max Gemini XS plate reader using an excitation wavelength of 340 nm and an emission wavelength of 425 nm.
(§1) Kinetic constants for NEP and its mutants were obtained using the assay conditions noted above, but with Glut-Ala-Ala-Phe-MNA varied from 20 to 500 µM. Typically 12 data points were obtained. The data were fit to the Michaelis-Menten equation using Prism4 software. The Ki for insulin B chain was obtained by measuring the rate of Glut-Ala-Ala-Phe-MNA hydrolysis in the presence of varying concentrations of insulin B chain from 1 to 40 µM. Data were fit to a Dixon plot (1/rate versus [insulin B chain]) using Prism4 software and the ID50 obtained as the –x intercept, where ID50 corresponds to the concentration of insulin producing 50% inhibition. The actual Ki was obtained from the equation: ID50 = Ki (1+ [Glut-Ala-Ala-Phe-MNA]/KmGlut-Ala-Ala-Phe-MNA), [33].

insulin B chain [2] = assay: Insulin B chain as alternate substrate (competitive) inhibitor of Glut-Ala-Ala-Phe-MNA hydrolysis (Dixon plot); details: insulin B chain 1 to 40 µM as competitive inhibitor of Glut-Ala-Ala-Phe-MNA hydrolysis by the enzyme form, 37°C, 20 mM MES, pH 6.5, ID50 converted to Ki
Protocol: as §1

leu-ENK [3] = assay: Rate of leu-ENK hydrolysis (HPLC); details: for Rate of hydrolysis of leu-ENK: 37°C, 20 mM MES buffer, pH 6.5, disappearance of substrate by HPLC, at least triplicate
Protocol: (§2) Cleavage of physiological peptides was measured via reverse phase high performance liquid chromatography (HPLC) following incubation of the purified NEP or its mutants with 15 µM insulin B chain (Sigma Aldrich), 24 µM Aß1–40 (Anaspec), or 64 µM leu-ENK (Sigma) in 100 µL of 20 mM MES, pH 6.5, at 37°C. Reactions were run in triplicate. HPLC was carried out in a Vydac C4 column using a linear gradient from 0.1% trifluoroacetic acid (TFA) in 95% water, 5% acetonitrile to 0.1% TFA in 50% acetonitrile/water at a flow rate of 1 mL/min. Peptides and hydrolysis products were detected at 214 nm and quantified by measuring peak areas. Peptides obtained from HPLC were analyzed on an Applied Biosystems 4800 MALDI TOF/TOF Proteomics Analyzer at the University of Kentucky Proteomics core. This facility is supported in part by grant P20RR020171 from the NIH/NCRR.
(§3) Statistical analysis comparing wild-type NEP and its mutants was performed with Prism 4 software using a two-tailed paired t-test with a 95% confidence interval.

insulin B chain [4] = assay: Rate of insulin B chain hydrolysis (HPLC); details: 15 µM insulin B chain, 37°C, 20 mM MES buffer, pH 6.5; disappearance of substrate by HPLC; at least triplicate
Protocol: as §2, §3

Aß1–40 = assay: Rate of Aß1–40 hydrolysis (HPLC); details: 24 µM Aß1–40, 37°C, 20 mM MES buffer, pH 6.5; disappearance of substrate by HPLC; at least triplicate
Protocol: as §2, §3

leu-ENK [5] = assay: Dual substrate assay: leu-ENK hydrolysis in presence of insulin B chain; details: 15 µM insulin B chain and 64 µM leu-ENK together, 37°C, 20 mM MES buffer, pH 6.5; for leu-ENK hydrolysis, activity relative to the uninhibited value: numbers in parenthesis
Protocol: (§4) The rate of cleavage of a substrate mixture is determined by both the kcat for that substrate as well by the affinity for the substrate. […] This is expected, given that each peptide acts as a competitive inhibitor of the other. […] That is the ratio for leu-ENK/insulin B chain cleavage is 3 for NEP^S546E compared to 6 for wild-type NEP.
as §2

insulin B chain [6] = assay: Dual substrate assay: insulin B chain hydrolysis in presence of leu-ENK; details: 15 µM insulin B chain and 64 µM leu-ENK together, 37°C, 20 mM MES buffer, pH 6.5; for Insulin B Chain hydrolysis, activity relative to the uninhibited value: numbers in parenthesis
Protocol: as §4, §2

[7] = system: leu-ENK and insulin B chain; assay: Dual substrate assay: substrate preference leu-ENK versus insulin B chain; details: for Substrate preference leu-ENK/insulin B chain (in words): dual substrate assay, versus wild-type; for Ratio leu-ENK insulin B chain: ratio of rates, 15 µM insulin B chain and 64 µM leu-ENK together
Protocol: as §4, §2

Molecule	Specific Activity (Glut-Ala-Ala-Phe-MNA cleavage) [1] [pmol/min/ng]	Km [1] [µM]	Activity relative to wild-type enzyme (Glut-Ala-Ala-Phe-MNA) [1] [%]	Ki (insulin B chain [2]) [nM]	leu-ENK cleavage rate as fraction of wild-type rate (leu-ENK [3]; 64 µM leu-ENK)	Rate of hydrolysis of leu-ENK (leu-ENK [3]; 64 µM leu-ENK) [pmol/min/ng]	leu-ENK cleavage rate relative to wild-type NEP rate (leu-ENK [3]; 64 µM leu-ENK, pH 6.5, 37°C)	Increase in preference for leu-ENK (over Aß1–40) (leu-ENK [3]; relative to NEP, from separate single-substrate rates)	Rate of hydrolysis of Insulin B Chain (insulin B chain [4]) [pmol/min/ng]	Rate of hydrolysis of Aß1–40 (Aß1–40) [fmol/min/ng]	leu-ENK hydrolysis rate, dual substrate assay (leu-ENK [5]) [pmol/min/ng]	leu-ENK hydrolysis, activity relative to the uninhibited value (leu-ENK [5])	Insulin B Chain hydrolysis rate, dual substrate assay (insulin B chain [6]) [pmol/min/ng]	Insulin B Chain hydrolysis, activity relative to the uninhibited value (insulin B chain [6])	Substrate preference leu-ENK/insulin B chain (in words) [7]	Ratio leu-ENK insulin B chain [7]
B1	11.2 ± 0.3	51 ± 10	~25	1000 ± 100	1/6	0.31 ± 0.02	less than 20%	two fold	0.06 ± 0.02	14 ± 1	0.23 ± 0.03	0.74	0.04 ± 0.01	0.67	no change in overall substrate preference	5.8
B2	17.7 ± 0.6	83 ± 4		2500 ± 900		1.06 ± 0.17			0.13 ± 0.02	43 ± 1	0.62 ± 0.03	0.58	0.02 ± 0.01	0.15	shift in substrate preference toward leu-ENK	31.0
B3	19.2 ± 0.4	87 ± 8		1200 ± 100		1.21 ± 0.22			0.21 ± 0.01	85 ± 3	0.69 ± 0.11	0.57	0.11 ± 0.02	0.52	no change in overall substrate preference	6.3
B4		118 ± 7														
B5		73 ± 6														
B6			< 1													
